Reference: the supplement of paper PMC9170038

Tested on: MS2 coat protein
Assay: apparent KD of MS2 coat protein; designed switch direction (-1 OFF switch, 1 ON switch): -1; higher = weaker reporter binding
In short: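 On Illumina chips, designed RNA switches with common flanks were made by stalled E. coli RNA polymerase. Titrations with SNAP-549-labelled MS2 coat protein, doubling from 0.7 or 1.5 nM to 3 µM, were done with no input, with 200 uM small-molecule ligand, or with an oligonucleotide input. Apparent KD is the median per design over clusters, from curve fits of normalised cluster fluorescence.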

[1] = input ligand: microRNA oligo, concentration not stated
[2] = Eterna round: R95, input ligand: microRNA oligo, concentration not stated

Sequence	apparent KD of MS2 coat protein (input ligand: FMN 200 uM) [nM]	apparent KD of MS2 coat protein (input ligand: none) [nM]	apparent KD of MS2 coat protein [1] [nM]	apparent KD of MS2 coat protein [2] [nM]
UGUUGUUCAGGAUAUGAUGUAUAAUACAUGAGGAUCACCCAUGUAGAUCCUGAAUUAACAUCAGAAGGGAAUAUUG [salish99_ex5_r4_101] (Eterna round: R97, puzzle: Exclusion 5)	19	17		
UGUUUGUCAGGAUAUGCUAGUGCUAGUGAAAGCUAGUGCUAGUAGAAGGGACAUGAGGAUCACCCAUGUGAACG [-27.1, -27 kcal, A 26%, 2bis-(ca)2] (Eterna round: R97, puzzle: Exclusion 4)	117	54.1		
UUAAAGGCGGAGGAUAUGUAGGCUUUCGAGUCGACAGAAGGCCGCACAUGAGGAUCACCCAUGUGGUCCUCCAA [EX6 A.20] (Eterna round: R97, puzzle: Exclusion 6)	219	51.8		
UUAAAUCAUGUAGGAUAUGCGUGGCAAAGCUAUGCAGAAGGACAUGAGGAUCACCCAUGUUCUAGCGUCUGCGUACAGAUGCUA [Mat - Exclusion NG 1 - Mod of JL - D77] (Eterna round: R96, puzzle: Exclusion NG 1)	249	42.6	34.9	
UUAAAUCAUGUAGGAUAUGCGUGGCGAAGCUAUGCAGAAGGACAUGAGGAUCACCCAUGUGCUUCCGUCUGAGAACAGACGGUA [Mat - Exclusion NG 1 - Mod of JL - D12] (Eterna round: R96, puzzle: Exclusion NG 1)	91.8	93.1	63.9	
UUAAAUCAUGUAGGAUAUGCGUGGCGAAGCUAUGCAGAAGGACAUGAGGAUCACCCAUGUUCUUCCGUCUGCGUACAGACGGAA [Mat - Exclusion NG 1 - Mod of JL - D38] (Eterna round: R96, puzzle: Exclusion NG 1)	284	40.8	33.7	
UUAAAUCAUGUAGGAUAUGCGUGGCGAAGCUAUGCAGAAGGACAUGAGGAUCACCCAUGUUCUUCCGUCUGCGUACAGAUGGAA [JL ENG1 1.08] (Eterna round: R96, puzzle: Exclusion NG 1)	271	36.3	33.8	
UUAAAUCAUGUAGGAUAUGGAAGGCGAACCUAUCCAGAAGGACAUGAGGAUCACCCAUGUGCUGCGUUGUCCGUAGACAGCGCU [Ex NG1 #1] (Eterna round: R96, puzzle: Exclusion NG 1)	114	36.2	29.5	
UUAACAUGCUGGUGAUCAUACAUGAGGAUCACCCAUGUAACAAGCUUUUUGCUCGUCUUAUAAUUUAAGAUCACCAG [Stov1/7-A1] (Eterna round: R97, puzzle: Sensor, turn-off variant 1)	17	15.9		
UUAACAUGCUGGUGAUCAUACAUGAGGAUCACCCAUGUAACAAGCUUUUUGUUCGUCUUAUAAGAUUACUAGUAUGU [Stov1/10-B1] (Eterna round: R97, puzzle: Sensor, turn-off variant 1)	39.4	59.4		
UUAAGUUCAGGAUAUGAUGAAUUAAACAUGAGGAUCACCCAUGUAGAUCCUGAAAUAACAUCAGAAGGGAAUAUUU [JL-ex5-4.51 Brourd mod] (Eterna round: R97, puzzle: Exclusion 5)	57	17.6		
UUAAUACAUGUAGGAUAUGCGUGGCGAAGCUAUGCAGAAGGACAUGAGGAUCACCCAUGUUCAUGCGUCCGCGUACGGAUGCAA [JL Eng1 1.21 mod 7] (Eterna round: R96, puzzle: Exclusion NG 1)	19.9	14.9	12.6	
UUAAUGGCUGUGAGGAUAUCGGAUAGAUAGAUAUUCGAGAAGGUACAUGAGGAUCACCCAUGUGUGAUUAGAGA [Brourd's EX4 #64] (Eterna round: R97, puzzle: Brourd's mod of Exclusion 4)	269	244		
UUAAUGUGAGGAUAUCAGGUGUGCUAGCGUACUGGUACAUCUGAGAAGGCACAUGAGGAUCACCCAUGUUCUUC [JL-ex4-3.30 Brourd mod] (puzzle: Exclusion 4)				32.5
UUAAUGUGAGGAUAUGGUAAAGAUAAGAUGAUGAAAGAACUCCAGAAGGCACAUGAGGAUCACCCAUGUAGAUG [JL-ex4-2.14 Jieux mod] (puzzle: Exclusion 4)				35.6
UUAAUUAAUAAUUAAGAUCAUUACAUGAGGAUCACCCAUGUCGAGGAUAUCAGCUCGUUUAGAGCUGAGAAGGCGACAAAUUAU [ExNG3/13-B2] (Eterna round: R96, puzzle: Exclusion NG 3)	670	473	411	

Sequence	apparent KD of MS2 coat protein (input ligand: FMN 200 uM) [nM]	apparent KD of MS2 coat protein (input ligand: none) [nM]	apparent KD of MS2 coat protein [1] [nM]	apparent KD of MS2 coat protein [2] [nM]
UUAAUUAAUGUGAGGAUAUCUAGAGCUGCGGCUCUAGAGAAGGCACAUGAGGAUCACCCAUGUCUCAAUUAAUU [BmEx4/2-E3] (Eterna round: R97, puzzle: Brourd's mod of Exclusion 4)	21.6	14.7		
UUAAUUAAUUAACGCAGCAAGAUCACAUGAGGAUCACCCAUGUAGGAUAUCAGCUCGUGUAGAGCUGAGAAGGACAUAGCUGCG [ExNG3/1-A3] (Eterna round: R96, puzzle: Exclusion NG 3)	80.8	16.8	17.2	
UUAAUUAAUUAAGCGCAAGAUCACAUGAGGAUCACCCAUGUAUAGGAUAUCAGCUCGAUUAGAGCUGAGAAGGAUACAUAGCGC [ExNG3/2-A1] (Eterna round: R96, puzzle: Exclusion NG 3)			185	
UUAAUUAAUUGCGCAAGAUCACAUGAGGAUCACCCAUGUAUAUAGGAUAUCAGCUCGUUUAGAGCUGAGAAGGAUAUACAGCGC [ExNG3/3-A2] (Eterna round: R96, puzzle: Exclusion NG 3)	1320	488	536	
UUAAUUAAUUUAAUAUAAGAUCACAUGAGGAUCACCCAUGUAUAGGAUAUCAGCUCGAUUAGAGCUGAGAAGGAUACAUAAUAU [ExNG3/2-B1] (Eterna round: R96, puzzle: Exclusion NG 3)	135	216	188	
UUAAUUAAUUUAUUAGAUCCUCACAUGAGGAUCACCCAUGUGCAGGAUAUCAGCUCGAUUAGAGCUGAGAAGGGCACUAUAAAU [ExNG3/10-B1] (Eterna round: R96, puzzle: Exclusion NG 3)	65	62.2	56.4	
UUAAUUACGGUGCUUUAACCUCACAUGAGGAUCACCCAUGUGCAGGAUAUCAGCUCGAUUAGAGCUGAGAAGGGCACUGCACCG [ExNG3/11-A1] (Eterna round: R96, puzzle: Exclusion NG 3)	15.1	12.5	9.95	
UUAAUUAGCAGACUAAUACCUCACAUGAGGAUCACCCAUGUGCAGGAUAUCAGCUCGAUUAGAGCUGAGAAGGGCACUGUCUGC [ExNG3/12-A1] (Eterna round: R96, puzzle: Exclusion NG 3)	14.8	11.3	8.01	
UUAAUUAGCAGGCAAGAUCAUUACAUGAGGAUCACCCAUGUCGAGGAUAUCAGCUCGUGUAGAGCUGAGAAGGCGACAGCCUGC [ExNG3/13-A3] (Eterna round: R96, puzzle: Exclusion NG 3)	666	334	207	
UUAAUUAGCAGGCAAGAUCAUUACAUGAGGAUCACCCAUGUCGAGGAUAUCAGCUCGUUUAGAGCUGAGAAGGCGACAGCCUGC [ExNG3/13-A2] (Eterna round: R96, puzzle: Exclusion NG 3)	711	417	289	
UUAAUUCUGAUUCUUGAAAUACAUGAGGAUCACCCAUGUUCACAGGAUAUUGAUUAUGGUAGUAACAAGAAGGGUGUAUCAUUU [JR_ExcNG3_Sub040] (Eterna round: R96, puzzle: Exclusion NG 3)	192	111	162	
UUAAUUUAAGGGAUAGAUCAUUACAUGAGGAUCACCCAUGUUGAGGAUAUCAGCUCGUUUAGAGCUGAGAAGGCAACAAUAGGG [ExNG3/14-A2] (Eterna round: R96, puzzle: Exclusion NG 3)	58.9	163	60	
UUAGAAAUGUUAGGAUAUUAAUAUUUUUUUAGUAUGAUCUACAUGAGGAUCACCCAUGUUAAAAUUAAGAAGGAACAUUUUAUU [JR_ExcNG2_Sub098] (Eterna round: R96, puzzle: Exclusion NG 2)			59.7	
UUAGAAUUGUUAGGAUAUUAAUUAUUGUAUAGUAUGAUCUACAUGAGGAUCACCCAUGUUAAAUAUAAGAAGGAACGUUAGAUU [JR_ExcNG2_Sub094] (Eterna round: R96, puzzle: Exclusion NG 2)			42.3	
UUAGAGUAAUAGGAUAUGCUACGUCACGGCUGUGCAGAAGGAUUAACAUGAGGAUCACCCAUGUGGUGAGUCCU [Eternabot (L1) Solution 31] (Eterna round: R97, puzzle: Exclusion 6)	242	985		
UUAGCGUAAGUAAGGAUAUGCUGGUCGAAAGAUCAGCAGAAGGUACAUGAGGAUCACCCAUGUGGAUUCGUUAU [Mod of JL 11 - Jieux - Brourd's mod of Exclusion 4] (Eterna round: R97, puzzle: Brourd's mod of Exclusion 4)	73	27.5		
